T1: TIGIT on TIGIT-over expressing NFAT-Luc/Jurkat effector cells (GenScript reporter cell line) (UniProt Q495A1 22-244, limits assumed)
T1 sequence (looked up): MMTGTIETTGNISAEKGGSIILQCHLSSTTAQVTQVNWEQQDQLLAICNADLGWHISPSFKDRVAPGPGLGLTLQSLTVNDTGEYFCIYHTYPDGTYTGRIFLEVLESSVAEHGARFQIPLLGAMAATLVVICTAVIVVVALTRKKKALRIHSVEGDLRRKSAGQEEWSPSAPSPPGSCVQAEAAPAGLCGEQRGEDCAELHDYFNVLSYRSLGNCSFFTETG

T2: His-tagged human TIGIT (human, UniProt Q495A1 22-141)
T2 construct: SPR analyte; also called human TIGIT protein; not shown: His tag
T2 sequence: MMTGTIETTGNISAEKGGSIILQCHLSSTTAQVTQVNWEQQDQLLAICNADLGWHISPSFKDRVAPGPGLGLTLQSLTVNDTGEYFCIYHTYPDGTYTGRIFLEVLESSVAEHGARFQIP

T3: human TIGIT expressed on CHO-K1 cells (human, UniProt Q495A1 22-244)
T3 construct: whole, on cells; also called human TIGIT-CHO-K1 cells; human TIGIT over-expressing cell line
T3 sequence (looked up): T1 sequence (looked up)

B1: huTIGIT-19-1 (antibody, human IgG1, kappa, V domains shown)
VH: QVQLVQSGAEVKKPGASVKVSCKASGYTFTRYSMYWVRQAPGQGLEWIAFIDAYSGGSTYNQRFRGKATLTVDTSISTAYMELSRLRSDDTAVYYCARGGDYGWYLGVWGQGTLVTVSS
VL: DIQMTQSPSSLSASVGDRVTITCRPSENIYTYLSWYQQKPGKAPKLLIYNAKSLPSGVPSRFSGSGSGTDFTLTISSLQPEDFATYYCQHHYGNPLTFGQGTKVEIKR
notes: Humanized IgG; also called 19VH4.M9 + 19VL1.M4
B2: huTIGIT-19-2 (antibody, human IgG1, kappa, V domains shown)
VH: B1 VH
VL: B1 VL with P25A, E27Q, N28S, T31S
notes: Humanized IgG; also called 19VH4.M9 + 19VL1.M7
B3: huTIGIT-19-4 (antibody, human IgG1, kappa, V domains shown)
VH: B1 VH with N61A, R63K, R65Q
VL: B1 VL with P25A, E27Q, N28S, T31S
notes: Humanized IgG; also called 19VH4.M10 + 19VL1.M7
B4: huTIGIT-19-3 (antibody, human IgG1, kappa, V domains shown)
VH: B1 VH with N61A, R63K, R65Q
VL: B1 VL
notes: Humanized IgG; also called 19VH4.M10 + 19VL1.M4
B5: humanized TIGIT-6 antibody 6VH6 + 6VL1 (antibody, V domains shown)
VH: QVQLVQSGAEVKKPGASVKVSCKASGYTITENTMHWVRQAPGQRLEWIGGINPNNGGTSYNQQFKGRATLTVDTSASTAYMELSSLRSEDTAVYYCTRSSYYRYDLDYWGQGTTVTVSS
VL: DIQMTQSPSSLSASVGDRVTITCKASQDVKTALAWYQQKPGKAPKLLIYSASYRYTGVPSRFSGSGSGTDFTFTISSLQPEDIATYYCHQHYTTPWTFGGGTKLEIK
notes: Full-length IgG, tested as HEK293 supernatant
B6: humanized TIGIT-6 antibody 6VH6 + 6VL1.M1 (antibody, V domains shown)
VH: B5 VH
VL: B5 VL with K24Q, V29I
notes: as for B5
B7: humanized TIGIT-6 antibody 6VH6.M3 + 6VL1 (antibody, V domains shown)
VH: B5 VH with N61S, Q63K, K65Q
VL: B5 VL
notes: as for B5
B8: humanized TIGIT-6 antibody 6VH6.M1 + 6VL1 (antibody, V domains shown)
VH: B5 VH with I29F, T33A
VL: B5 VL
notes: as for B5
B9: humanized TIGIT-6 antibody 6VH5 + 6VL1 (antibody, V domains shown)
VH: B5 VH with V72R
VL: B5 VL
notes: as for B5
B10: humanized TIGIT-6 antibody 6VH6.M4 + 6VL1 (antibody, V domains shown)
VH: B5 VH with N55Q, N61S, Q63K, K65Q
VL: B5 VL
notes: as for B5
B11: humanized TIGIT-19 antibody 19VH4 + 19VL1.M4 (antibody, V domains shown)
VH: B1 VH with T28A, T30S, A53P, S55N
VL: DIQMTQSPSSLSASVGDRVTITCRPSENIYTYLSWYQQKPGKAPKLLIYNAKSLPSGVPSRFSGSGSGTDFTLTISSLQPEDFATYYCQHHYGNPLTFGQGTKVEIK
notes: as for B5
B12: humanized TIGIT-19 antibody 19VH4 + 19VL1.M5 (antibody, V domains shown)
VH: B1 VH with T28A, T30S, A53P, S55N
VL: B11 VL with P25A, E27Q
notes: as for B5
B13: humanized TIGIT-19 antibody 19VH4 + 19VL1.M7 (antibody, V domains shown)
VH: B1 VH with T28A, T30S, A53P, S55N
VL: B11 VL with P25A, E27Q, N28S, T31S
notes: as for B5
B14: humanized TIGIT-19 antibody 19VH4.M9 + 19VL1 (antibody, V domains shown)
VH: B1 VH
VL: B11 VL with S53T, S56E
notes: as for B5
B15: humanized TIGIT-19 antibody 19VH4.M5 + 19VL1 (antibody, V domains shown)
VH: B1 VH with T28A, T30S, A53P, S55N, N61A, R63K, R65Q
VL: B11 VL with S53T, S56E
notes: as for B5
B16: humanized TIGIT-19 antibody 19VH4.M6 + 19VL1 (antibody, V domains shown)
VH: B1 VH with A53P
VL: B11 VL with S53T, S56E
notes: as for B5
B17: humanized TIGIT-19 antibody 19VH4 + 19VL1.M6 (antibody, V domains shown)
VH: B1 VH with T28A, T30S, A53P, S55N
VL: B11 VL with P25A, E27Q, T31S
notes: as for B5
B18: humanized TIGIT-19 antibody 19VH4.M4 + 19VL1 (antibody, V domains shown)
VH: B1 VH with T28A, T30S, A53P
VL: B11 VL with S53T, S56E
notes: as for B5
B19: humanized TIGIT-19 antibody 19VH4.M7 + 19VL1 (antibody, V domains shown)
VH: B1 VH with A53P, N61A, R63K, R65Q
VL: B11 VL with S53T, S56E
notes: as for B5
B20: humanized TIGIT-6 antibody 6VH6.M3 + 6VL1.M1 (antibody, V domains shown)
VH: B5 VH with N61S, Q63K, K65Q
VL: B5 VL with K24Q, V29I
notes: as for B5

Here are results for 20 molecules from patent publication US20260139048A1 (NANJING LEGEND BIOTECH, published 2026).

For orientation: EC50 means the concentration that produces a half-maximal response. A low value points to a more potent agent. Usually Kd stands for the constant that tells how readily two partners part at equilibrium. Higher therefore signals weaker binding. Broadly, the koff is the first-order rate constant of dissociation. As a reminder, the kon is the second-order rate constant of association. A lower kon goes with slow association. As usually defined, the IC50 is the concentration that gives 50% inhibition. A lower IC50 goes with greater potency in that assay.

Changes are numbered by the printed parent chain.

T5 sequence (A0A7N9I9V4 entry or part of it): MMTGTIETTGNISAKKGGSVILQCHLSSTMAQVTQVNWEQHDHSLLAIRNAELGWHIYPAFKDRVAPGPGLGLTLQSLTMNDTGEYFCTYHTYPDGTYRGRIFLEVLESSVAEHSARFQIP

The first test concerns the target T1, TIGIT on TIGIT-over expressing …. The test is described as follows: cell-based or functional assay.
As to B1, the “Bottom (RLU)” value came out at 53900 RLU; the midpoint of the response, the EC50, lay at 2.05 nM; the “Top (RLU)” value is 144000 RLU.

Turning to B2, the “Bottom (RLU)” value came out at 55200 RLU, the “EC50” value was 2.39 nM and the “Top (RLU)” value is 155000 RLU.

For B3, the “Bottom (RLU)” value was 51300 RLU, the “EC50” value came to 4.28 nM and the “Top (RLU)” value was 148000 RLU.

In the case of B4, the “Bottom (RLU)” value was determined as 53700 RLU, the “EC50” value was 2.65 nM and the “Top (RLU)” value turned out to be 142000 RLU.

A further test has as its target T2, His-tagged human TIGIT. The test is described as follows: SPR experiment 1, IgG from HEK293 supernatant captured. (In general: In SPR one partner is held on a chip, and binding of the other changes the refractive index at the surface.)
Molecule B5 yielded a Kd of 0.3 nM, a dissociation rate constant (koff) of 0.00014 s⁻¹ and a kon of 470000 M⁻¹ s⁻¹.

On to B6, for which the Kd was determined as 0.24 nM, the koff came out at 0.00013 s⁻¹ and the kon amounted to 530000 M⁻¹ s⁻¹.

With B7, the Kd stood at 0.35 nM, the dissociation rate constant (koff) was determined as 0.00012 s⁻¹ and the association rate constant (kon) worked out at 350000 M⁻¹ s⁻¹.

B8 gave a dissociation constant (Kd) of 0.63 nM, a koff of 0.00026 s⁻¹ and a kon of 410000 M⁻¹ s⁻¹.

B9 returned a dissociation constant Kd of 0.35 nM, a dissociation rate constant (koff) of 0.00011 s⁻¹ and a kon of 310000 M⁻¹ s⁻¹.

B10: the Kd is 0.65 nM, the koff was 0.00015 s⁻¹ and the on-rate (kon) was 230000 M⁻¹ s⁻¹.

The target of a further test is T2, His-tagged human TIGIT. Put plainly: SPR experiment 2, IgG from HEK293 supernatant captured.
On to B11, for which the Kd was found to be 0.023 nM, the koff was 2.7e-05 s⁻¹ and the association rate constant (kon) was 1.2e+06 M⁻¹ s⁻¹.

In the case of B12, the affinity, expressed as Kd, was 0.081 nM; the koff was found to be 8.7e-05 s⁻¹; the kon is 1.1e+06 M⁻¹ s⁻¹.

For the molecule B13, binding was put at a Kd of 0.13 nM, the koff came out at 0.00017 s⁻¹ and the on-rate (kon) amounted to 1.3e+06 M⁻¹ s⁻¹.

B14: the Kd was 0.22 nM, the koff amounted to 0.00023 s⁻¹ and the kon stood at 1.1e+06 M⁻¹ s⁻¹.

With B15, the equilibrium dissociation constant (Kd) came to 0.16 nM, the dissociation rate constant (koff) came out at 0.0002 s⁻¹ and the on-rate (kon) was 1.3e+06 M⁻¹ s⁻¹.

In turn, B16 gave a Kd of 0.2 nM, a koff of 0.00021 s⁻¹ and a kon of 1e+06 M⁻¹ s⁻¹.

The molecule B17 came in with an equilibrium dissociation constant (Kd) of 0.15 nM, an off-rate constant (koff) of 0.00015 s⁻¹ and an on-rate (kon) of 1e+06 M⁻¹ s⁻¹.

In turn, B18 came in with a Kd of 0.12 nM, a koff of 0.00013 s⁻¹ and a kon of 1.1e+06 M⁻¹ s⁻¹.

In the case of B19, the affinity, expressed as Kd, was 0.3 nM; the dissociation rate constant (koff) amounted to 0.00032 s⁻¹; the on-rate (kon) was 1.1e+06 M⁻¹ s⁻¹.

The target in the next test is T2, His-tagged human TIGIT. Described as above. The source holds these as a separate data set.
As to B20, the dissociation constant (Kd) was 0.5 nM, the koff was determined as 0.00016 s⁻¹ and the kon is 320000 M⁻¹ s⁻¹.

Another test deals with T3, human TIGIT expressed on CHO-K1 cells. The test is described as follows: flow cytometry competition: biotinylated CD155-Fc on human TIGIT-CHO-K1 cells. In general terms: In flow cytometry, cells or beads pass a laser one at a time.
B1: the IC50 is 0.22 nM. This lies in the sub-nanomolar range.

B2 registered an IC50 of 0.24 nM.

In turn, B3 registered an IC50 of 0.26 nM.

As for B4, the concentration for half-maximal inhibition (IC50) worked out at 0.21 nM.

In another test the target is T4, cynomolgus TIGIT expressed on CHO-K1 cells (cynomolgus, UniProt A0A7N9I9V4 89-312).
T4 construct: whole, on cells; also called cynomolgus TIGIT over-expressing cell line
T4 sequence (A0A7N9I9V4 entry or part of it): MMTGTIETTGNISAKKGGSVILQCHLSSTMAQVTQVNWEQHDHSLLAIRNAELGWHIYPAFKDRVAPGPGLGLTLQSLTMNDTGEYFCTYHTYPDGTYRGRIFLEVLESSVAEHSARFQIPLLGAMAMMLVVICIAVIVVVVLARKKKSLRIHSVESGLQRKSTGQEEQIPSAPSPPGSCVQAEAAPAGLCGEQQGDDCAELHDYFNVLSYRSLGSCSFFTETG
The test is described as follows: flow cytometry on CHO-K1 cells expressing cynomolgus TIGIT.
For the molecule B1, the concentration giving a half-maximal response (EC50) came to 0.473 nM. That is a sub-nanomolar value.

B2 registered a concentration for a half-maximal effect (EC50) of 0.44 nM.

Molecule B3 returned an EC50 of 0.408 nM.

On to B4, for which a half-maximal response (EC50) required 0.384 nM.

In another test the target is T3, human TIGIT expressed on CHO-K1 cells. The test is described as follows: flow cytometry on CHO-K1 cells expressing human TIGIT.
In turn, B1 gave an EC50 of 0.294 nM. This lies in the sub-nanomolar range.

The molecule B2 showed a concentration giving a half-maximal response (EC50) of 0.256 nM.

Molecule B3 yielded an EC50 of 0.172 nM.

In the case of B4, the EC50 was 0.196 nM.

Another test concerns the target T5, His-tagged cynomolgus TIGIT (cynomolgus, UniProt A0A7N9I9V4 89-209).
T5 construct: SPR analyte; also called cynomolgus TIGIT protein; not shown: His tag
The test is described as follows: SPR (Biacore T200), antibody captured, His-tagged TIGIT analyte.
Regarding B1, the equilibrium dissociation constant (Kd) is 0.047 nM, the koff worked out at 3.7e-05 s⁻¹ and the association rate constant (kon) stood at 790000 M⁻¹ s⁻¹.

Molecule B2 gave a Kd of 0.055 nM, a koff of 5.2e-05 s⁻¹ and a kon of 950000 M⁻¹ s⁻¹.

In the case of B3, binding was characterised by a dissociation constant (Kd) of 0.087 nM, the off-rate (koff) was 7.3e-05 s⁻¹ and the on-rate constant (kon) amounted to 840000 M⁻¹ s⁻¹.

Molecule B4 displayed a Kd of 0.054 nM, a koff of 4.1e-05 s⁻¹ and a kon of 760000 M⁻¹ s⁻¹.

The next test has as its target T2, His-tagged human TIGIT. The test is described as above.
Regarding B1, the affinity, expressed as Kd, was 0.16 nM; the off-rate constant (koff) stood at 0.00019 s⁻¹; the kon came out at 1.1e+06 M⁻¹ s⁻¹.

For the molecule B2, binding was put at a Kd of 0.19 nM, the koff was found to be 0.00021 s⁻¹ and the kon was 1.1e+06 M⁻¹ s⁻¹.

The molecule B3 showed a dissociation constant Kd of 0.49 nM, a dissociation rate constant (koff) of 0.00059 s⁻¹ and a kon of 1.2e+06 M⁻¹ s⁻¹.

The molecule B4 gave a Kd of 0.28 nM, a koff of 0.0003 s⁻¹ and a kon of 1.1e+06 M⁻¹ s⁻¹.
